According to the Human Domainome abundance scans (Beltran et al. 2025):
± gives the uncertainty stated by the source.

B1: Far upstream element-binding protein 1, residues 98 to 169; numbered along this chain, Q96AE4 (parent)
chain: RSVMTEEYKVPDGMVGFIIGRGGEQISRIQQESGCKIQIAPDSGGLPERSCMLTGTPESVQSAKRLLDQIVE

Variants of: B1
Assay: abundance fitness (aPCA) (normalised: wild type 0, dead -1); higher = more abundant; growth selection in yeast, the domain comes from the species named
Settings: Homo sapiens

Abundance fitness, by site and new letter:
K9: P -0.112 ± 0.028, M -0.043 ± 0.031, T -0.091 ± 0.027, Q -0.033 ± 0.031, C -0.1 ± 0.031, I -0.079 ± 0.035, L -0.06 ± 0.023, H -0.093 ± 0.041, V -0.098 ± 0.023, A -0.114 ± 0.024, W -0.084 ± 0.026, Y -0.084 ± 0.037, G -0.195 ± 0.023, F -0.033 ± 0.033, D -0.181 ± 0.032, N -0.156 ± 0.043, E -0.216 ± 0.032, R -0.053 ± 0.022, S -0.108 ± 0.024
M4: R -0.165 ± 0.023, T -0.06 ± 0.031, P -0.245 ± 0.032, I 0.015 ± 0.035, G -0.133 ± 0.023, W -0.165 ± 0.03, C 0.01 ± 0.032, K -0.053 ± 0.034, A -0.07 ± 0.027, F -0.001 ± 0.035, Y -0.007 ± 0.041, Q -0.085 ± 0.03, N -0.027 ± 0.037, L -0.033 ± 0.025, H -0.074 ± 0.045, S -0.135 ± 0.028, D -0.079 ± 0.036
V15: D -0.158 ± 0.044, F 0.011 ± 0.044, W -0.084 ± 0.029, M -0.027 ± 0.036, T -0.126 ± 0.032, Y -0.144 ± 0.047, I -0.074 ± 0.041, N -0.213 ± 0.049, H -0.135 ± 0.044, R -0.206 ± 0.024, S -0.059 ± 0.028, L -0.046 ± 0.026, G -0.136 ± 0.027, C -0.124 ± 0.039, P -0.146 ± 0.032, Q -0.08 ± 0.035
G16: A -0.023 ± 0.029, T -0.054 ± 0.033, C -0.083 ± 0.044, I -0.144 ± 0.06, D 0.018 ± 0.039, P 0.033 ± 0.034, F -0.176 ± 0.059, H -0.064 ± 0.048, W -0.09 ± 0.03, L -0.102 ± 0.029, Y -0.118 ± 0.058, M -0.098 ± 0.036, K -0.028 ± 0.038, E 0.009 ± 0.03, V -0.108 ± 0.027, N -0.037 ± 0.043, R -0.007 ± 0.023, Q -0.029 ± 0.033
P11: T -0.124 ± 0.028, G -0.138 ± 0.025, Y -0.127 ± 0.042, R -0.074 ± 0.023, W -0.185 ± 0.03, N -0.125 ± 0.041, M -0.136 ± 0.032, L -0.102 ± 0.025, V -0.17 ± 0.026, E -0.067 ± 0.031, S -0.112 ± 0.025, H -0.162 ± 0.041, A -0.081 ± 0.025, C -0.133 ± 0.033, I -0.159 ± 0.038, F -0.206 ± 0.046, Q -0.099 ± 0.032, D -0.052 ± 0.034
E7: F -0.153 ± 0.23, V -0.106 ± 0.14, T -0.031 ± 0.21, A -0.085 ± 0.3, L -0.031 ± 0.32, C 0.061 ± 0.11, M -0.281 ± 0.25, G -0.116 ± 0.14, W -0.054 ± 0.17
G13: W -0.038 ± 0.029, Q 0.033 ± 0.033, R -0.007 ± 0.023, D 0 ± 0.034, T 0.031 ± 0.031, I -0.034 ± 0.047, H -0.055 ± 0.04, E 0.041 ± 0.032, P -0.019 ± 0.03, L -0.079 ± 0.026, K 0 ± 0.034, Y 0.012 ± 0.044, V -0.218 ± 0.027, S 0.025 ± 0.026, F -0.123 ± 0.045, M -0.034 ± 0.036, A -0.01 ± 0.026
F17: P 0.01 ± 0.028, R 0.047 ± 0.021, N 0.022 ± 0.038, D 0.015 ± 0.033, L -0.008 ± 0.024, E 0.084 ± 0.027, S 0.063 ± 0.024, Y -0.019 ± 0.038, V -0.005 ± 0.024, G 0.04 ± 0.022, Q 0.044 ± 0.029, C -0.009 ± 0.032, M 0.018 ± 0.032, T 0 ± 0.027, A 0.045 ± 0.025, W -0.007 ± 0.026, I -0.041 ± 0.04, H -0.003 ± 0.035, K 0.072 ± 0.03
I19: W -0.042 ± 0.031, Q -0.03 ± 0.032, K -0.021 ± 0.037, S -0.046 ± 0.027, D -0.094 ± 0.038, P -0.211 ± 0.029, V 0.012 ± 0.027, F -0.048 ± 0.054, Y -0.068 ± 0.051, G -0.072 ± 0.025, C -0.001 ± 0.042, M -0.071 ± 0.036, A -0.034 ± 0.027, E 0.018 ± 0.032, L -0.006 ± 0.027, T -0.018 ± 0.03, H -0.06 ± 0.038, N -0.036 ± 0.045, R -0.038 ± 0.023
Y8: G -0.608 ± 0.03, N -0.426 ± 0.049, V -0.069 ± 0.029, A -0.221 ± 0.03, L -0.059 ± 0.03, K -0.127 ± 0.039, H 0.024 ± 0.045, W -0.059 ± 0.033, P -0.798 ± 0.053, F -0.013 ± 0.047, D -0.688 ± 0.057, C -0.297 ± 0.054, M -0.104 ± 0.037, T -0.147 ± 0.037, I -0.035 ± 0.044, R -0.216 ± 0.026, E -0.535 ± 0.039, Q -0.2 ± 0.036
V10: L -0.018 ± 0.025, D -0.389 ± 0.038, P -0.265 ± 0.032, G -0.304 ± 0.024, N -0.48 ± 0.055, W -0.193 ± 0.03, C -0.078 ± 0.034, K -0.584 ± 0.05, E -0.628 ± 0.04, Q -0.581 ± 0.037, R -0.491 ± 0.026, H -0.502 ± 0.046, S -0.382 ± 0.028, Y -0.198 ± 0.039, M 0.008 ± 0.034, F -0.091 ± 0.038
E6: T 0.029 ± 0.03, F -0.081 ± 0.039, M -0.01 ± 0.034, L -0.033 ± 0.026, Y -0.053 ± 0.045, A -0.14 ± 0.027, I -0.07 ± 0.05, G -0.092 ± 0.023, W -0.048 ± 0.027, N -0.177 ± 0.048, D -0.104 ± 0.04, K -0.01 ± 0.032, H -0.081 ± 0.046, R -0.02 ± 0.023, Q 0.054 ± 0.032, P -0.625 ± 0.039, C -0.085 ± 0.037
S2: V -0.036 ± 0.029, I -0.077 ± 0.048, Y -0.087 ± 0.049, N -0.143 ± 0.057, C -0.085 ± 0.037, R -0.004 ± 0.025, T 0.012 ± 0.03, H -0.15 ± 0.048, K -0.006 ± 0.039, E -0.007 ± 0.037, A -0.033 ± 0.027, G -0.003 ± 0.026, W -0.133 ± 0.035, M 0.038 ± 0.037, Q 0.015 ± 0.035, F -0.026 ± 0.039, P -0.064 ± 0.031, L -0.052 ± 0.027
M14: L -0.013 ± 0.025, W -0.093 ± 0.03, N -0.105 ± 0.042, P -0.27 ± 0.031, C -0.011 ± 0.037, S -0.026 ± 0.026, F -0.016 ± 0.044, H -0.12 ± 0.044, R -0.131 ± 0.023, V -0.01 ± 0.027, A -0.007 ± 0.028, G -0.097 ± 0.025, I -0.037 ± 0.043, Y -0.025 ± 0.05, K -0.066 ± 0.033, D -0.082 ± 0.037
R1: D 0.042 ± 0.048, P -0.286 ± 0.062, K -0.081 ± 0.035, I 0.01 ± 0.034, W -0.269 ± 0.035, Y 0.011 ± 0.046, E -0.194 ± 0.054, G -0.102 ± 0.031, V -0.035 ± 0.036, C -0.013 ± 0.033, A -0.125 ± 0.043, N 0.043 ± 0.034, L -0.131 ± 0.038, H -0.219 ± 0.065, Q -0.513 ± 0.14, S -0.113 ± 0.028
V3: F -0.073 ± 0.049, Y 0.003 ± 0.041, S -0.087 ± 0.027, I 0.06 ± 0.037, D -0.042 ± 0.036, T -0.005 ± 0.031, P -0.092 ± 0.033, E 0.004 ± 0.029, L -0.047 ± 0.029, H -0.043 ± 0.041, Q -0.004 ± 0.034, M 0.017 ± 0.036, N -0.001 ± 0.043, W -0.084 ± 0.03, C -0.048 ± 0.033, K 0.03 ± 0.035, A -0.058 ± 0.025, G -0.086 ± 0.023
T5: Q -0.016 ± 0.033, D -0.149 ± 0.04, M -0.012 ± 0.034, F -0.006 ± 0.046, S -0.01 ± 0.026, E 0.009 ± 0.03, Y -0.096 ± 0.046, I -0.037 ± 0.038, C -0.072 ± 0.036, L -0.11 ± 0.026, N -0.063 ± 0.041, A 0 ± 0.028, G -0.101 ± 0.024, P -0.301 ± 0.032, R -0.012 ± 0.023, V -0.049 ± 0.025, H -0.055 ± 0.037, W -0.138 ± 0.029
D12: I -0.038 ± 0.051, S -0.045 ± 0.026, P -0.009 ± 0.028, W -0.164 ± 0.032, A 0.019 ± 0.026, Y -0.045 ± 0.045, M -0.067 ± 0.037, N 0.032 ± 0.041, E 0.001 ± 0.03, V -0.041 ± 0.027, Q -0.027 ± 0.031, L -0.064 ± 0.026, G -0.049 ± 0.026, F -0.066 ± 0.047, R -0.028 ± 0.023, C -0.057 ± 0.038, K -0.068 ± 0.036, H -0.038 ± 0.047
I18: P -0.266 ± 0.031, S -0.226 ± 0.028, G -0.206 ± 0.023, C -0.145 ± 0.041, F -0.036 ± 0.054, D -0.175 ± 0.037, V -0.031 ± 0.025, K -0.264 ± 0.034, Q -0.243 ± 0.035, M -0.049 ± 0.033, A -0.189 ± 0.026, N -0.236 ± 0.055, W -0.108 ± 0.029, L -0.012 ± 0.027, R -0.324 ± 0.024, E -0.147 ± 0.029, T -0.175 ± 0.028, Y -0.21 ± 0.046
G20: H -0.08 ± 0.048, C -0.167 ± 0.038, K -0.14 ± 0.037, I -0.284 ± 0.051, F -0.176 ± 0.052, A -0.066 ± 0.026, E 0.002 ± 0.033, M -0.174 ± 0.037, D -0.063 ± 0.036
